Data set [1] concerns Pseudomonas fluorescens HPPD protein. In words: HGD assay: HPPD activity coupled to HGA dioxygenase, pI50 and type of inhibition (time-course). In kind it is biochemical. As to conditions: for tolerance (pI50) Cmpd. 1: inhibitor Cmpd. 1; for tolerance (pI50) Cmpd. 1 / tolerance (pI50) Cmpd. 2 / tolerance (pI50) Cmpd. 3 / tolerance (pI50) Cmpd. 4 / tolerance (pI50) Cmpd. 5 / tolerance (pI50) DKN / tolerance (pI50) MST / tolerance (pI50) TBT: HGD assay; for tolerance (pI50) Cmpd. 2: inhibitor Cmpd. 2; for tolerance (pI50) Cmpd. 3: inhibitor Cmpd. 3; for tolerance (pI50) Cmpd. 4: inhibitor Cmpd. 4; for tolerance (pI50) Cmpd. 5: inhibitor Cmpd. 5; for tolerance (pI50) DKN: inhibitor diketonitrile (DKN); for tolerance (pI50) MST: inhibitor mesotrione (MST); for tolerance (pI50) TBT: inhibitor tembotrione (TBT). The gist of the method:
(§1)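 Purified Pseudomonas fluorescens HPPD, room temperature. OD assay: 50 mM Tris-HCl pH 7.8, 0.5 mM HPP, 10 mM ascorbate, catalase, 24 min, remaining HPP derivatised with DNP, read at 405 nm, inhibitor 5.0×10^−6 to 5.0×10^−4 M. HGD assay: 200 mM Tris-HCl pH 7.6, 600 μM HPP, 20 μM FeSO4, coupled HGA dioxygenase, initial rates at 318 nm, inhibitor ≤100 μM, time-course gives inhibition type; pI50 from 4-parameter fits.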

Data set [2] shares this test system. In words: OD assay: HPPD activity and pI50 from HPP remaining after derivatisation with DNP. Format: biochemical. As to conditions: for Activity DeltaE/24 min μg Protein: HPPD enzyme activity of the clone; for tolerance (pI50) Cmpd. 2: inhibitor Cmpd. 2; for tolerance (pI50) DKN: inhibitor diketonitrile (DKN), negative log of molar concentration; for tolerance (pI50) MST: inhibitor mesotrione (MST); for tolerance (pI50) TBT: inhibitor tembotrione (TBT). The gist of the method:
as §1

For the next data set, the system named is T0 soybean plants. Description: greenhouse spray test of T0 soybean plants for tolerance to mesotrione. As to conditions: mesotrione 3X field rate, 316 grams AI per hectare, seven days after treatment. Format: in vivo.
The mark [3] stands for this setting: HT-single plant expression cassette.
Setting [4] is: HT-triple plant expression cassette.

B1: FLP136: PfHPPD variant P215L, E335P, G336F (protein)
chain: MADLYENPMGLMGFEFIEFASPTPGTLEPIFEIMGFTKVATHRSKNVHLYRQGEINLILNNEPNSIASYFAAEHGPSVCGMAFRVKDSQKAYNRALELGAQPIHIDTGPMELNLPAIKGIGGAPLYLIDRFGEGSSIYDIDFVYLEGVERNPVGAGLKVIDHLTHNVYRGRMVYWANFYEKLFNFREARYFDIKGEYTGLTSKAMSAPDGMIRILLNEESSKGAGQIEEFLMQFNGEGIQHVAFLTDDLVKTWDALKKIGMRFMTAPPDTYYEMLEGRLPDHGEPVDQLQARGILLDGSSVEGDKRLLLQIFSETLMGPVFFEFIQRKGDDGFGPFNFKALFESIERDQVRRGVLTAD
modifications: HPPD variant - FLP136
notes: PfHPPD variant P215L, E335P, G336F
With B1, in data set [1], the “mechanism of inhibition by diketonitrile (DKN), time-course of inhibition” value was “fully reversible inhibitors”; the “mechanism of inhibition by mesotrione (MST), time-course of inhibition” value is recorded as “fully reversible inhibitors”; the “mechanism of inhibition by tembotrione (TBT), time-course of inhibition” value is given as “fully reversible inhibitors”; the “tolerance (pI50) Cmpd. 1” value came to 5.6. In addition, in data set [1], the “tolerance (pI50) Cmpd. 2” value was 5.9, the “tolerance (pI50) Cmpd. 3” value turned out to be 5.6, the “tolerance (pI50) Cmpd. 4” value was 6.0 and the “tolerance (pI50) Cmpd. 5” value came out at 5.6. In data set [1], the “tolerance (pI50) DKN” value stood at 4.0, the “tolerance (pI50) MST” value amounted to 4.5 and the “tolerance (pI50) TBT” value is reported as 5.3. In addition, in data set [2], the “Activity DeltaE/24 min μg Protein” value was found to be 0.09 DeltaE/24 min μg Protein, the “tolerance (pI50) Cmpd. 2” value came to 4.8, the “tolerance (pI50) DKN” value was 2.6 and the “tolerance (pI50) MST” value is listed as 3.3. In addition, in data set [2], the “tolerance (pI50) TBT” value is on record as 4.7. Further, in the data set on T0 soybean plants (setting [3]), the “Number of T0 soybean plants with herbicide tolerance rating 0 (completely bleached)” value (from here on “Number … (completely bleached)”) amounted to 4, the “Number of T0 soybean plants with herbicide tolerance rating 1 (slight tolerance)” value (shortened to “Number of T0 soybean plants … (slight tolerance)”) was found to be 10, the “Number of T0 soybean plants with herbicide tolerance rating 2 (moderate tolerance)” value (“Number … (moderate tolerance)” for short) worked out at 41 and the “Number of T0 soybean plants with herbicide tolerance rating 3 (nearly perfect tolerance)” value (from here on “Number … (nearly perfect tolerance)”) stood at 20. For the same molecule, in the data set on T0 soybean plants (setting [4]), the “Number … (completely bleached)” value came out at 4, the “Number of T0 soybean plants … (slight tolerance)” value stood at 17, the “Number … (moderate tolerance)” value was 33 and the “Number … (nearly perfect tolerance)” value is recorded as 19.

B2: FLP202: PfHPPD variant P215L, E335P, G336F, A340E (protein)
chain: MADLYENPMGLMGFEFIEFASPTPGTLEPIFEIMGFTKVATHRSKNVHLYRQGEINLILNNEPNSIASYFAAEHGPSVCGMAFRVKDSQKAYNRALELGAQPIHIDTGPMELNLPAIKGIGGAPLYLIDRFGEGSSIYDIDFVYLEGVERNPVGAGLKVIDHLTHNVYRGRMVYWANFYEKLFNFREARYFDIKGEYTGLTSKAMSAPDGMIRILLNEESSKGAGQIEEFLMQFNGEGIQHVAFLTDDLVKTWDALKKIGMRFMTAPPDTYYEMLEGRLPDHGEPVDQLQARGILLDGSSVEGDKRLLLQIFSETLMGPVFFEFIQRKGDDGFGPFNFKELFESIERDQVRRGVLTAD
modifications: HPPD variant - FLP202
notes: PfHPPD variant P215L, E335P, G336F, A340E
Regarding B2, in data set [1], the “mechanism of inhibition by diketonitrile (DKN), time-course of inhibition” value is given as “fully reversible inhibitors”; the “mechanism of inhibition by mesotrione (MST), time-course of inhibition” value was “fully reversible inhibitors”; the “mechanism of inhibition by tembotrione (TBT), time-course of inhibition” value is “fully reversible inhibitors”; the “tolerance (pI50) Cmpd. 1” value came to 4.1. Further, in data set [1], the “tolerance (pI50) Cmpd. 2” value came out at 4.7, the “tolerance (pI50) Cmpd. 3” value is given as 4.3, the “tolerance (pI50) Cmpd. 4” value is 5.7 and the “tolerance (pI50) Cmpd. 5” value was 4.3. Further, in data set [1], the “tolerance (pI50) DKN” value is recorded as less than 4, the “tolerance (pI50) MST” value is less than 4 and the “tolerance (pI50) TBT” value is on record as 4.2. Besides, in data set [2], the “Activity DeltaE/24 min μg Protein” value came out at 0.09 DeltaE/24 min μg Protein, the “tolerance (pI50) Cmpd. 2” value was 4.5, the “tolerance (pI50) DKN” value is reported as less than 2.5 and the “tolerance (pI50) MST” value is less than 2.5. Further, in data set [2], the “tolerance (pI50) TBT” value stood at 3.6. Further, in the data set with T0 soybean plants (setting [3]), the “Number … (completely bleached)” value was 2, the “Number of T0 soybean plants … (slight tolerance)” value is given as 21, the “Number … (moderate tolerance)” value was 37 and the “Number … (nearly perfect tolerance)” value worked out at 18. Further, in the data set with T0 soybean plants (setting [4]), the “Number … (completely bleached)” value is on record as 7, the “Number of T0 soybean plants … (slight tolerance)” value is recorded as 8, the “Number … (moderate tolerance)” value is 10 and the “Number … (nearly perfect tolerance)” value was found to be 14.

(Values after patent publication US10400249B2, “HPPD variants and methods of use” (priority 2014, dated 2019).)
